The values that follow are results of earlier work, collected in publication PMC6426755.

For the data set, the target named is CCL21 (Homo sapiens) (UniProt O00585). Put plainly: SPR (Biacore). For orientation: Surface plasmon resonance follows binding to a sensor surface in real time, without labels.
UniProt O00585, sequence (O00585 24-134): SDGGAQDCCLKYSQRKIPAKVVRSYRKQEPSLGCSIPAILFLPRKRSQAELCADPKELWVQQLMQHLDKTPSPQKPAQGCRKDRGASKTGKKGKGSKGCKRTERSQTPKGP

Take podoplanin (from UniProt Q86YL7): the Kd was 0.07 µM.

By Kd is commonly meant a measure of binding affinity in units of concentration.
